± gives the uncertainty stated by the source.
Experiment: protein stability index of a GFP-peptide fusion (yeast GPS) (PSI 1-4); higher = more stable; sorted into four equal gates, so the index is relative within each strain
Outline: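 Plasmids isolated from each sorting gate were PCR-amplified and Illumina-sequenced, and barcodes assigned the reads to strains. The gates, four of equal size, were set by GFP/Cherry fluorescence ratio on mid-log cultures in leucine-free medium. These cultures were yeast carrying a pooled library of tiled 17-residue yeast protein peptides fused downstream of GFP on a plasmid that also expresses Cherry. The protein stability index is the sum of every gate's read frequency times its gate number.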

Sequence | protein stability index (doa10∆) | protein stability index (pdr5∆) | protein stability index (san1∆) | protein stability index (ubr1∆)
LGILKKKRFDEFMAGFN [SMC4] | 2.15 ± 0.11 | 2.15 ± 0.13 | 1.88 ± 0.19 | 1.87 ± 0.078
IKGQCLATLLGHNDWVS [ASC1] | 1.37 ± 0.083 | 1.69 ± 0.083 | 1.72 ± 0.11 | 1.65 ± 0.066
SVLQLFQSVQLNINNPN [SMC2] | 1.88 ± 0.049 | 1.89 ± 0.045 | 1.68 ± 0.058 | 1.48 ± 0.04
AALKKTRKAARPQKLRA [RPL6A] | 2.96 ± 0.071 | 3.09 ± 0.05 | 2.97 ± 0.043 | 3.16 ± 0.055
PTSVKLLKTTVPIVSKK [POP3] | 3.21 ± 0.1 | 2.94 ± 0.068 | 2.86 ± 0.083 | 3 ± 0.075
HSKFRSSSGNTWSLILN [YML031W/NDC1] | 2.75 ± 0.1 | 2.72 ± 0.099 | 3.15 ± 0.078 | 3.12 ± 0.077
DVSLLLQRDLFIRLPHW [RGR1] | 2.5 ± 0.087 | 2.51 ± 0.063 | 2.2 ± 0.073 | 2.55 ± 0.083
TASSEASAGSKEGASTN [YMR153W/NUP53] | 3.09 ± 0.2 | 3.23 ± 0.14 | 3.32 ± 0.16 | 3.39 ± 0.12
IKIEPSADDDVNNGNIP [SIR3] | 2.12 ± 0.098 | 2.44 ± 0.14 | 2.58 ± 0.15 | 2.76 ± 0.13
SQPSKKSFANHTEDEQI [SIR4] | 2.81 ± 0.059 | 2.84 ± 0.052 | 3.08 ± 0.059 | 2.83 ± 0.052
HRIGQKKQVHVYRFVTE [ISW2] | 2.14 ± 0.054 | 2.33 ± 0.051 | 2.28 ± 0.075 | 2.12 ± 0.038
DDDDDDDDEVDYSEIQR [DSN1] | 2.98 ± 0.067 | 3.49 ± 0.087 | 3.41 ± 0.044 | 3.16 ± 0.084
RIQNRVKLGLNSKMPTR [PRP8] | 2.48 ± 0.16 | 2.92 ± 0.1 | 2.74 ± 0.13 | 2.91 ± 0.13
VQDALLTNQLYKNHELL [SNF2] | 3.19 ± 0.068 | 3.1 ± 0.072 | 3.08 ± 0.044 | 3.14 ± 0.061
CTFSMEPYHFISNYNTK [SRB8] | 1.99 ± 0.083 | 2.09 ± 0.05 | 1.5 ± 0.079 | 1.71 ± 0.052
STMGTPTVHNSTAAAPI [PGD1] | 2.83 ± 0.095 | 3.07 ± 0.059 | 2.76 ± 0.06 | 2.93 ± 0.049
TRRKRRQGRSNRRGMLA [SNF5] | 2.51 ± 0.13 | 2.71 ± 0.14 | 2.86 ± 0.11 | 2.99 ± 0.11
KLEYPHTDVSSSLEARY [RPN3] | 2.76 ± 0.066 | 3.01 ± 0.073 | 2.75 ± 0.077 | 2.9 ± 0.086
ANFGEILEDFRVIKDFK [YMR153W/NUP53] | 3.07 ± 0.14 | 3.4 ± 0.16 | 3.37 ± 0.068 | 3.28 ± 0.096
GFSTGIGDTIADGPTMR [RPO21] | 2.3 ± 0.13 | 3.15 ± 0.17 | 3.03 ± 0.094 | 2.99 ± 0.15
KYPIFTGESWVKLTYNS [YDL088C/ASM4] | 1.82 ± 0.049 | 2.07 ± 0.068 | 2.07 ± 0.1 | 2.34 ± 0.058
STFGFNNSAPNNTNNAN [YJL041W/NSP1] | 3.13 ± 0.042 | 3.18 ± 0.047 | 2.96 ± 0.039 | 3.19 ± 0.038
GKGIKLSIAEERDRRRA [RPS4A] | 2.59 ± 0.12 | 2.87 ± 0.16 | 3.35 ± 0.072 | 3.23 ± 0.09
SSFEENNDLESVSMLLQ [RRI2] | 2.98 ± 0.071 | 3.23 ± 0.063 | 3 ± 0.048 | 3.13 ± 0.039
TDLSGKETIARVTGGMK [RPS14A] | 3.06 ± 0.087 | 3.12 ± 0.082 | 2.79 ± 0.056 | 2.92 ± 0.061
LANLIRDALRNIKNTNE [RRP6] | 2.37 ± 0.045 | 2.51 ± 0.055 | 2.63 ± 0.055 | 2.49 ± 0.036

Sequence | protein stability index (doa10∆) | protein stability index (pdr5∆) | protein stability index (san1∆) | protein stability index (ubr1∆)
LMYSITFHHHGRQTVLI [SRB2] | 3 ± 0.07 | 3.18 ± 0.071 | 3.18 ± 0.06 | 3.12 ± 0.039
AVSRSMTDIWNTLIPES [ECM29] | 2.94 ± 0.067 | 3.05 ± 0.08 | 2.84 ± 0.054 | 3.03 ± 0.069
RASIEYYVGQVMRNNES [DIS3] | 3.22 ± 0.067 | 3.21 ± 0.091 | 3.21 ± 0.053 | 3.26 ± 0.063
FDKNTKTTPNTASSEAS [YMR153W/NUP53] | 2.99 ± 0.051 | 2.98 ± 0.053 | 2.9 ± 0.036 | 2.8 ± 0.043
PVLNLDKLWTLIPEDKR [RPL28] | 1.54 ± 0.056 | 1.45 ± 0.058 | 2.04 ± 0.071 | 1.17 ± 0.036
GLHPFEVAQLGSLACDT [RPB4] | 1.9 ± 0.15 | 2.25 ± 0.18 |  | 2.33 ± 0.08
LDDDSIVNHEQDLPKIN [SRB4] | 2.7 ± 0.14 | 2.92 ± 0.082 | 2.99 ± 0.09 | 2.81 ± 0.063
VSIKDSTGCVVGLSQPD [YMR129W/POM152] | 2.09 ± 0.047 | 2.32 ± 0.058 | 2.05 ± 0.066 | 2.28 ± 0.036
DQDRGAARHKQHEQGTF [RRI2] | 3.21 ± 0.1 | 2.99 ± 0.23 |  | 
VFHAAFEGDSNMLICAP [BRR2] | 2.25 ± 0.048 | 2.41 ± 0.042 | 2.33 ± 0.045 | 2.615 ± 0.026
DDDINWQELARSTDEFN [RPT5] | 3.18 ± 0.064 | 3.21 ± 0.065 | 3.11 ± 0.048 | 3.2 ± 0.043
QQNYSKVLLPSINISCV [SWI1] | 1.85 ± 0.067 | 1.71 ± 0.059 | 1.87 ± 0.16 | 2.53 ± 0.054
TCDEIQNFENDFSLRYI [REC8] | 2.52 ± 0.14 | 2.12 ± 0.28 | 3.35 ± 0.15 | 2.88 ± 0.28
HHYNPKTKKLNLSAFKI [BRR2] | 2.21 ± 0.062 | 2.4 ± 0.05 | 2.4 ± 0.055 | 2.4 ± 0.042
WRQFGNRMQISPDQMRN [GRR1] | 3.07 ± 0.12 | 3.14 ± 0.12 | 2.89 ± 0.11 | 2.75 ± 0.11
GLSAREAVKQAAKIIYL [PRE10] | 2.86 ± 0.096 | 2.59 ± 0.063 | 2.59 ± 0.1 | 2.52 ± 0.053
SNGGNNMLPQRQSSVGS [SNF2] | 1.76 ± 0.067 | 2.18 ± 0.097 | 2.19 ± 0.076 | 2.55 ± 0.045
QRVCLRSDSYMLHKVLE [RPT6] | 2.84 ± 0.084 | 2.95 ± 0.073 | 2.81 ± 0.067 | 2.84 ± 0.047
DILLRLCVLWDDLQSSV [YCG1] | 1.65 ± 0.067 | 1.4 ± 0.051 | 1.72 ± 0.087 | 2.11 ± 0.07
SHINTNVGDNNSTASSS [ARP7] | 2.68 ± 0.095 | 3.02 ± 0.067 | 2.9 ± 0.062 | 2.84 ± 0.066
LSISVPSDVNIDVMKSQ [SNU114] | 2.86 ± 0.057 | 2.84 ± 0.057 | 2.57 ± 0.053 | 2.78 ± 0.044
YQCAMGKQAIGAIAYNQ [RET1] | 2.55 ± 0.053 | 2.76 ± 0.06 | 2.78 ± 0.047 | 2.65 ± 0.049
ECQVIAAEGLCKLFLAD [YCG1] | 3.29 ± 0.066 | 3.29 ± 0.067 | 3.11 ± 0.047 | 3.25 ± 0.036
IGHLITKEEIMHGLQAK [RPN5] | 2.91 ± 0.087 | 2.96 ± 0.091 | 2.94 ± 0.065 | 3.01 ± 0.067
MANKEWRVREASTSALL [ECM29] |  |  |  | 2.26 ± 0.2
LYGKRFFPYYVHTIIAG [PRE7] | 1.15 ± 0.032 | 1.23 ± 0.039 | 1.13 ± 0.11 | 1.14 ± 0.041
